From paper PMC8038350, “Nordihydroguaiaretic Acid as a Novel Substrate and Inhibitor of Catechol O-Methyltransferase Modulates 4-Hydroxyestradiol-Induced Cyto- and Genotoxicity in MCF-7 Cells” (Molecules, 2021)

Substrate: [H][C@@]12CCc3c(ccc(O)c3O)[C@@]1([H])CC[C@]1(C)[C@@H](O)CC[C@@]21[H]
Experiment: enzyme kinetics of O-methylation by recombinant COMT, HPLC-DAD (Km)
Type: biochemical, Homo sapiens
Settings: S-adenosyl-L-methionine (SAM)

B1: catechol O-methyl transferase (COMT) (Homo sapiens) (protein)
chain: MGDTKEQRILNHVLQHAEPGNAQSVLEAIDTYCEQKEWAMNVGDKKGKIVDAVIQEHQPSVLLELGAYCGYSAVRMARLLSPGARLITIEINPDCAAITQRMVDFAGVKDKVTLVVGASQDIIPQLKKKYDVDTLDMVFLDHWKDRYLPDTLLLEECGLLRKGTVLLADNVICPGAPDFLAHVRGSSCFECTHYQSFLEYREVVDGLEKAIYKGPGSEAGP
notes: recombinant human soluble COMT, hexahistidine-tagged
Mg2+
  Km: 37.9 µM
Mg2+ docking only: active site, hydrogen bonds with Glu199 and Asn170
  Vmax: 3.26 µmol/min/mg
